Experimental data taken from patent US20100143262A1, “Method for Identifying Allergenic Proteins And Peptides” (priority 2008, published 2010).

B1: BSA_F2: recombinant fragment 2 of BSA, 189 aa, sequence in Table 1A (protein)
chain: MARQRLRCASIQKFGERALKAWSVARLSQKEPKAEFVEVTKLVTDLTKVHKECCHGDLLECADDRADLAKYICDNQDTISSKLKECCDKPLLEKSHCIAEVEKDAIPENLPPLTADFAEDKDVCKNYQEAKDAFLGSFLYEYSRRHPEYAVSVLLRLAKEYEATLEECCAKDDPHACYSTVFDKLKHLVDEHHHHHH
B2: recombinant alphaS1-casein (protein)
chain: RPKHPIKHQGLPQEVLNENLLRFFVAPFPEVFGKEKVNELSKDIGSESTEDQAMEDIKQMEAESISSSEEIVPNSVEQKHIQKEDVPSERYLGYLEQLLRLKKYKVPQLEIVPNSAEERLHSMKEGIHAQQKEPMIGVNQELAYFYPELFRQFYQLDAYPSGAWYYVPLGTQYTDAPSFSDIPNPIGSENSEKTTMPLW
notes: expressed in E. coli
B3: lactoferrin (protein, UniProt P24627 20-708, looked up)
Lactotransferrin: APRKNVRWCTISQPEWFKCRRWQWRMKKLGAPSITCVRRAFALECIRAIAEKKADAVTLDGGMVFEAGRDPYKLRPVAAEIYGTKESPQTHYYAVAVVKKGSNFQLDQLQGRKSCHTGLGRSAGWIIPMGILRPYLSWTESLEPLQGAVAKFFSASCVPCIDRQAYPNLCQLCKGEGENQCACSSREPYFGYSGAFKCLQDGAGDVAFVKETTVFENLPEKADRDQYELLCLNNSRAPVDAFKECHLAQVPSHAVVARSVDGKEDLIWKLLSKAQEKFGKNKSRSFQLFGSPPGQRDLLFKDSALGFLRIPSKVDSALYLGSRYLTTLKNLRETAEEVKARYTRVVWCAVGPEEQKKCQQWSQQSGQNVTCATASTTDDCIVLVLKGEADALNLDGGYIYTAGKCGLVPVLAENRKSSKHSSLDCVLRPTEGYLAVAVVKKANEGLTWNSLKDKKSCHTAVDRTAGWNIPMGLIVNQTGSCAFDEFFSQSCAPGADPKSRLCALCAGDDQGLDKCVPNSKEKYYGYTGAFRCLAEDVGDVAFVKNDTVWENTNGESTADWAKNLNREDFRLLCLDGTRKPVTEAQSCHLAVAPNHAVVSRSDRAAHVKQVLLHQQALFGKNGKNCPDKFCLFKSETKNLLFNDNTECLAKLGGRPTYEEYLGTEYVTAIANLKKCSTSPLLEACAFLTR
notes: natural purified protein
B4: human alpha-lactalbumin (protein)
chain: KQFTKCELSQLLKDIDGYGGIALPELICTMFHTSGYDTQAIVENNESTEYGLFQISNKLWCKSSQVPQSRNICDISCDKFLDDDITDDIMCAKKILDIKGIDYWLAHKALCTEKLEQWLCEKL
notes: natural purified protein
B5: BSA_F1: recombinant fragment 1 of BSA, 190 aa, sequence in Table 1A (protein)
chain: MRGVFRRDTHKSEIAHRFKDLGEEHFKGLVLIAFSQYLQQCPFDEHVKLVNELTEFAKTCVADESHAGCEKSLHTLFGDELCKVASLRETYGDMADCCEKQEPERNECFLSHKDDSPDLPKLKPDPNTLCDEFKADEKKFWGKYLYEIARRHPYFYAPELLYYANKYNGVFQECCQAEDKGACLLPKIETMREKVLTSSHHHHHH
B6: BSA_F3: recombinant fragment 3 of BSA, 200 aa, sequence in Table 1A (protein)
chain: MPQNLIKQNCDQFEKLGEYGFQNALIVRYTRKVPQVSTPTLVEVSRSLGKVGTRCCTKPESERMPCTEDYLSLWNRLCVLHEKTPVSEKVTKCCTESLVNRRPCFSALTPDETYVPKAFDEKLFTFHADICTLPDTEKQIKKQTALVELLKHKPKATEEQLKTVMENFVAFVDKCCAADDKEACFAVEGPKLVVSTQTALAHHHHHH
B7: recombinant aS2-casein (protein)
chain: KNTMEHVSSSEESIISQETYKQEKNMAINPSKENLCSTFCKEVVRNANEEEYSIGSSSEESAEVATEEVKITVDDKHYQKALNEINQFYQKFPQYLQYLYQGPIVLNPWDQVKRNAVPITPTLNREQLSTSEENSKKTVDMESTEVFTKKTKLTEEEKNRLNFLKKISQRYQKFALPQYLKTVYQHQKAMKPWIQPKTKVIPYVRYL
notes: expressed in E. coli
B8: beta-casein (protein, UniProt P02666 16-224, looked up)
Beta-casein: RELEELNVPGEIVESLSSSEESITRINKKIEKFQSEEQQQTEDELQDKIHPFAQTQSLVYPFPGPIPNSLPQNIPPLTQTPVVVPPFLQPEVMGVSKVKEAMAPKHKEMPFPKYPVEPFTESQSLTLTDVENLHLPLPLLQSWMHQPHQPLPPTVMFPPQSVLSLSQSKVLPVPQKAVPYPQRDMPIQAFLLYQEPVLGPVRGPFPIIV
notes: natural purified protein
B9: recombinant beta-casein (protein)
chain: B8 Beta-casein
notes: expressed in E. coli
B10: beta-lactoglobulin variant A (protein)
chain: LIVTQTMKGLDIQKVAGTWYSLAMAASDISLLDAQSAPLRVYVEELKPTPEGDLEILLQKWENDECAQKKIIAEKTKIPAVFKIDALNENKVLVLDTDYKKYLLFCMENSAEPEQSLVCQCLVRTPEVDDEALEKFDKALKALPMHIRLSFNPTQLEEQCHI
notes: natural purified protein

How the values were obtained:
[1] = test system: serum IgE of cow's milk allergic patients; test: IgE binding capacity (IgE reactivity) of milk components with patients' sera; set-up: species or system human; details: sera of cow's milk allergic patients (n=78)
Excerpt: (§1) Sera from 78 patients who were selected according to a positive case history, positive skin-prick reactions and determination of specific IgE to cow's milk extract using the CAP-FEIA System (Phadia, Uppsala, Sweden) were used. Sera were obtained from five adults and 73 children (30 female and 43 male) from Austria, Germany, Italy, Spain and France.

[2] = test system: Humanized Rat Basophil Leukaemia (RBL) cells (clone RBL-703/21); test: human RBL assay: β-hexosaminidase release of humanized RBL cells loaded with patients' serum IgE; type: cell-based; details: percentage of 78 patients' sera triggering β-hexosaminidase release; milk components 0.3 μg/ml
Excerpt: A scientifically approved model to test biological reactivity of molecules is induction of histamine release from human basophil granulocytes (Purohit 2005). For this purpose a rat basophil leukaemia cell line expressing the α-chain of the human FcεRI receptor (Hoffmann et al., Int Arch Allergy Immunol, Vol 126(4), p. 277-285) was used. Different milk components (n=33) including whole milk extracts from different species, milk fractions, purified natural and recombinant cow's milk proteins, and recombinant protein fragments were tested. The percentages of 78 patients whose serum IgE antibodies trigger β-hexosaminidase release of the humanized RBL cells in response to the individual milk components were determined (FIG. 3).
as §1
Humanized Rat Basophil Leukaemia (RBL) cells (clone RBL-703/21) were incubated in microtiter plates overnight at 37° C. (7% CO2, 95% humidity) with 50 μl human sera, diluted 1:10. Afterwards cells were washed and exposed to milk components, diluted to 0.3 μg/ml protein in Tyrodes buffer containing 50% D2O and 0.1% BSA/HAS for 1 hour at 37° C. (7% CO2, 95% humidity). Spontaneous release of the cells was also evaluated. Finally, the cell supernatants were incubated with 50 μl assay solution (0.1 M citric acid or sodium citrate, pH 4.5, 160 μM 4-methyl umbelliferyl-N-acetyl-β-D-glucosaminide) in new microtiter plates at 37° C. (7% CO2, 95% humidity) for 1 h. The reactions were stopped by addition of 100 μl glycine buffer per well and the fluorescence measured at λex: 360 and λem: 465 using a fluorescence microplate reader. The specific hexosaminidase release of each sample was calculated using the formula: [(FlS−FlSp):(FlZ−FlSp)]×100 (where […] is the fluorescence of the sample; FlSp is the fluorescence of the spontaneous release and FlZ is the fluorescence of the total release).

Row | Molecule | IgE binding (% of patients) [1] | biological activity (% of patients) [2]
1 | B1 | 8.5 % of patients | 4.3 % of patients
2 | B2 | 48.7 % of patients | 19.2 % of patients
3 | B3 | 5.1 % of patients | 2.6 % of patients
4 | B4 | 30.8 % of patients | 6.4 % of patients
5 | B5 | 2.1 % of patients | 4.3 % of patients
6 | B6 | 8.5 % of patients | 8.5 % of patients
7 | B7 | 9.0 % of patients | 5.1 % of patients
8 | B8 | 44.9 % of patients | 34.6 % of patients
9 | B9 | 55.1 % of patients | 10.3 % of patients
10 | B10 | 50.0 % of patients | 28.2 % of patients
